B1: ILKEDPFLF (SEQ ID NO: 19) (peptide)
peptide: ILKEDPFLF
B2: IQMDEPMAF (SEQ ID NO: 43) (peptide)
peptide: IQMDEPMAF
B3: STIRGELFFF (SEQ ID NO: 12) (peptide)
peptide: STIRGELFFF
B4: LIFMLANVF (SEQ ID NO: 39) (peptide)
peptide: LIFMLANVF
B5: AYTLLGHEFV (SEQ ID NO: 77) (peptide)
peptide: AYTLLGHEFV
B6: MPLLWLRGF (SEQ ID NO: 273) (peptide)
peptide: MPLLWLRGF
B7: HPMIDINGIIVF (SEQ ID NO: 278) (peptide)
peptide: HPMIDINGIIVF
B8: YPENGVVQM (SEQ ID NO: 469) (peptide)
peptide: YPENGVVQM
B9: HPELVNHIVF (SEQ ID NO: 267) (peptide)
peptide: HPELVNHIVF
B10: FPVTSIFHTF (SEQ ID NO: 284) (peptide)
peptide: FPVTSIFHTF
B11: FPQKFIDLL (SEQ ID NO: 288) (peptide)
peptide: FPQKFIDLL
B12: YLPQHTIETY (SEQ ID NO: 199) (peptide)
peptide: YLPQHTIETY
B13: ATDLVVLDRY (SEQ ID NO: 136) (peptide)
peptide: ATDLVVLDRY
B14: SSDSSTLPKL (SEQ ID NO: 178) (peptide)
peptide: SSDSSTLPKL
B15: GSSDSSTLPKL (SEQ ID NO: 147) (peptide)
peptide: GSSDSSTLPKL
B16: GLNTGSALSY (SEQ ID NO: 146) (peptide)
peptide: GLNTGSALSY
B17: AEEEIMKKI (SEQ ID NO: 476) (peptide)
peptide: AEEEIMKKI
B18: MEVPVIKI (SEQ ID NO: 332) (peptide)
peptide: MEVPVIKI
B19: GEVSGLTKDF (SEQ ID NO: 480) (peptide)
peptide: GEVSGLTKDF
B20: AENLFRAF (SEQ ID NO: 366) (peptide)
peptide: AENLFRAF
B21: AEDEPAAAHL (SEQ ID NO: 334) (peptide)
peptide: AEDEPAAAHL
B22: ASSSGPMRWW (SEQ ID NO: 336) (peptide)
peptide: ASSSGPMRWW
B23: TEFTTVLY (SEQ ID NO: 343) (peptide)
peptide: TEFTTVLY
B24: QEQDVDLVQKY (SEQ ID NO: 325) (peptide)
peptide: QEQDVDLVQKY
B25: KEVDPAGHSY (SEQ ID NO: 322) (peptide)
peptide: KEVDPAGHSY
B26: SDMVRFHLF (SEQ ID NO: 355) (peptide)
peptide: SDMVRFHLF
B27: TEGIIMKDF (SEQ ID NO: 372) (peptide)
peptide: TEGIIMKDF
B28: KELEATKQY (SEQ ID NO: 335) (peptide)
peptide: KELEATKQY
B29: GELALKKKI (SEQ ID NO: 371) (peptide)
peptide: GELALKKKI
B30: TEFPIIKMY (SEQ ID NO: 488) (peptide)
peptide: TEFPIIKMY
B31: GEFPVRVQV (SEQ ID NO: 368) (peptide)
peptide: GEFPVRVQV
B32: EAAIRSVEL (SEQ ID NO: 318) (peptide)
peptide: EAAIRSVEL
B33: LVKVKVLL (SEQ ID NO: 317) (peptide)
peptide: LVKVKVLL
B34: EIRIRVVQM (SEQ ID NO: 311) (peptide)
peptide: EIRIRVVQM
B35: AIISRLVAL (SEQ ID NO: 314) (peptide)
peptide: AIISRLVAL
B36: ELKKKEYEEL (SEQ ID NO: 313) (peptide)
peptide: ELKKKEYEEL
B37: DIYQRALNL (SEQ ID NO: 315) (peptide)
peptide: DIYQRALNL
B38: EAMLRNKEL (SEQ ID NO: 312) (peptide)
peptide: EAMLRNKEL
B39: SEIGKAVGF (SEQ ID NO: 489) (peptide)
peptide: SEIGKAVGF
B40: SEPALLHSW (SEQ ID NO: 339) (peptide)
peptide: SEPALLHSW
B41: DELFSIALY (SEQ ID NO: 359) (peptide)
peptide: DELFSIALY
B42: FEYDFLLQRI (SEQ ID NO: 328) (peptide)
peptide: FEYDFLLQRI
notes: also called FEYDFLLORI
B43: VEAPGPVHVYW (SEQ ID NO: 346) (peptide)
peptide: VEAPGPVHVYW
B44: IEFIHPQAF (SEQ ID NO: 345) (peptide)
peptide: IEFIHPQAF
B45: SENLFFASF (SEQ ID NO: 361) (peptide)
peptide: SENLFFASF
B46: AEMLERVIKNY (SEQ ID NO: 319) (peptide)
peptide: AEMLERVIKNY
B47: KEADIHFLI (SEQ ID NO: 358) (peptide)
peptide: KEADIHFLI
B48: GEIIMQNNW (SEQ ID NO: 353) (peptide)
peptide: GEIIMQNNW
B49: MEVDPIGHVYIF (SEQ ID NO: 320) (peptide)
peptide: MEVDPIGHVYIF
B50: NEVLTYIKF (SEQ ID NO: 352) (peptide)
peptide: NEVLTYIKF
B51: SEMNVNMKY (SEQ ID NO: 365) (peptide)
peptide: SEMNVNMKY
B52: TENRYCVQL (SEQ ID NO: 337) (peptide)
peptide: TENRYCVQL
B53: AEVGFVRFF (SEQ ID NO: 484) (peptide)
peptide: AEVGFVRFF
B54: FIISDWRFVL (SEQ ID NO: 101) (peptide)
peptide: FIISDWRFVL
B55: FALPGLLHA (SEQ ID NO: 91) (peptide)
peptide: FALPGLLHA
B56: NLRDLLSEV (SEQ ID NO: 92) (peptide)
peptide: NLRDLLSEV
B57: VIKEKALTL (SEQ ID NO: 316) (peptide)
peptide: VIKEKALTL
B58: FNKRKPLSL (SEQ ID NO: 298) (peptide)
peptide: FNKRKPLSL
B59: DAIQRKYSC (SEQ ID NO: 309) (peptide)
peptide: DAIQRKYSC
B60: HLLQKQTSI (SEQ ID NO: 302) (peptide)
peptide: HLLQKQTSI
B61: VASPKHCVL (SEQ ID NO: 300) (peptide)
peptide: VASPKHCVL

The binders below were run against T1, HLA-A*24 (human) (assay: UV peptide-exchange ELISA; + = yield >10%).
T1 construct: MHC monomer made peptide-receptive by UV cleavage of a UV-sensitive ligand; also called peptide-receptive MHC class I monomer
From the text: (§1) Candidate peptides for T cell based therapies according to the present invention were further tested for their MHC binding capacity (affinity). The individual peptide-MHC complexes were produced by UV-ligand exchange, where a UV-sensitive peptide is cleaved upon UV-irradiation, and exchanged with the peptide of interest as analyzed. Only peptide candidates that can effectively bind and stabilize the peptide-receptive MHC molecules prevent dissociation of the MHC complexes. To determine the yield of the exchange reaction, an ELISA was performed based on the detection of the light chain (β2m) of stabilized MHC complexes. The assay was performed as generally described in Rodenko et al. (Rodenko et al., 2006).
(§2) 96 well MAXISorp plates (NUNC) were coated over night with 2 ug/ml streptavidin in PBS at room temperature, washed 4× and blocked for 1 h at 37° C. in 2% BSA containing blocking buffer. […] Peptide-MHC monomers of the UV-exchange reaction were diluted 100-fold in blocking buffer. Samples were incubated for 1 h at 37° C., washed four times, incubated with 2 ug/ml HRP conjugated anti-β2m for 1h at 37° C., washed again and detected with TMB solution that is stopped with […]. Absorption was measured at 450 nm.
Work on B1 yielded a peptide exchange yield of 10 to 20%. Binder B2 has a peptide exchange yield of 10 to 20%. Work on B3 yielded a peptide exchange yield of 10 to 20%. With B4 the peptide exchange yield was 10 to 20%. B5 gave a peptide exchange yield of 10 to 20%.

These binders were tested against T2, HLA-B*07 (human) (assay: UV peptide-exchange ELISA; ++ = yield >20%).
T2 construct: MHC monomer made peptide-receptive by UV cleavage of a UV-sensitive ligand; also called peptide-receptive MHC class I monomer
From the text: as §1, §2
B6 was tested, and the peptide exchange yield was 20 to 50%. Binder B7 has a peptide exchange yield of 20 to 50%. B8 showed a peptide exchange yield of 20 to 50%. B9 showed a peptide exchange yield of 20 to 50%. B10 showed a peptide exchange yield of 20 to 50%. B11 gave a peptide exchange yield of 20 to 50%.

What follows are binders tested against T3, HLA-A*01 (human) (assay: UV peptide-exchange ELISA; ++ = yield >20%).
T3 construct: MHC monomer made peptide-receptive by UV cleavage of a UV-sensitive ligand; also called peptide-receptive MHC class I monomer
From the text: as §1, §2
For B12, the peptide exchange yield was 20 to 50%. Work on B13 yielded a peptide exchange yield of 20 to 50%. With B14 the peptide exchange yield was 20 to 50%. B15 was tested, and the peptide exchange yield was 20 to 50%. With B16 the peptide exchange yield was 20 to 50%.

The binders below were run against T4, HLA-B*44 (human) (assay: UV peptide-exchange ELISA; ++ = yield >20%).
T4 construct: MHC monomer made peptide-receptive by UV cleavage of a UV-sensitive ligand; also called peptide-receptive MHC class I monomer
From the text: as §1, §2
B17 showed a peptide exchange yield of 20 to 50%. Binder B18 has a peptide exchange yield of 20 to 50%. Binder B19 has a peptide exchange yield of 20 to 50%. B20 showed a peptide exchange yield of 20 to 50%. In the case of B21, the peptide exchange yield is reported as 20 to 50%. B22 showed a peptide exchange yield of 20 to 50%. B23 was tested, and the peptide exchange yield was 20 to 50%. B24 showed a peptide exchange yield of 20 to 50%. B25 showed a peptide exchange yield of 20 to 50%. B26 was tested, and the peptide exchange yield was 20 to 50%. Work on B27 yielded a peptide exchange yield of 20 to 50%. For B28, the peptide exchange yield was 20 to 50%. In the case of B29, the peptide exchange yield is reported as 20 to 50%. In the case of B30, the peptide exchange yield is reported as 20 to 50%. Binder B31 has a peptide exchange yield of 20 to 50%.

The binders below were run against T5, HLA-B*08 (human) (assay: UV peptide-exchange ELISA; ++++ = yield >75%).
T5 construct: MHC monomer made peptide-receptive by UV cleavage of a UV-sensitive ligand; also called peptide-receptive MHC class I monomer
With B32 the peptide exchange yield was > 75%. B33 was tested, and the peptide exchange yield was > 75%. For B34, the peptide exchange yield was > 75%. In the case of B35, the peptide exchange yield is reported as > 75%. For B36, the peptide exchange yield was > 75%. With B37 the peptide exchange yield was > 75%. B38 was tested, and the peptide exchange yield was > 75%.

Each binder was assayed against T4, HLA-B*44 (assay: UV peptide-exchange ELISA; ++++ = yield >75%).
For B39, the peptide exchange yield was > 75%. In the case of B40, the peptide exchange yield is reported as > 75%. With B41 the peptide exchange yield was > 75%. B42 was tested, and the peptide exchange yield was > 75%. For B43, the peptide exchange yield was > 75%. B44 was tested, and the peptide exchange yield was > 75%. For B45, the peptide exchange yield was > 75%. In the case of B46, the peptide exchange yield is reported as > 75%. B47 was tested, and the peptide exchange yield was > 75%. With B48 the peptide exchange yield was > 75%. For B49, the peptide exchange yield was > 75%. For B50, the peptide exchange yield was > 75%. With B51 the peptide exchange yield was > 75%. With B52 the peptide exchange yield was > 75%. For B53, the peptide exchange yield was > 75%.

These binders were tested against T6, HLA-A*02 (human) (assay: UV peptide-exchange ELISA; +++ = yield >50%).
T6 construct: MHC monomer made peptide-receptive by UV cleavage of a UV-sensitive ligand; also called peptide-receptive MHC class I monomer
B54 gave a peptide exchange yield of 50 to 75%. Binder B55 has a peptide exchange yield of 50 to 75%. Binder B56 has a peptide exchange yield of 50 to 75%.

These binders were tested against T5, HLA-B*08 (assay: UV peptide-exchange ELISA; +++ = yield >50%).
B57 gave a peptide exchange yield of 50 to 75%. Binder B58 has a peptide exchange yield of 50 to 75%. B59 showed a peptide exchange yield of 50 to 75%. B60 was tested, and the peptide exchange yield was 50 to 75%. In the case of B61, the peptide exchange yield is reported as 50 to 75%.

— patent US11352401
